Results published in the supplement of paper PMC10065799, “High-throughput profiling of sequence recognition by tyrosine kinases and SH2 domains using bacterial peptide display” (eLife, 2023).
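Note: 11-residue human phosphosite peptides and single-mutation variants displayed on the E. coli surface, counted by deep sequencing, each peptide's frequency after selection divided by its frequency in the unselected input library; frequency after pTyr selection over input frequency; kinase dosed for 20-30% of maximal phosphorylation in three min.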

Each sequence was assayed against FGFR3 (UniProt P22607) (assay: phosphorylation enrichment, bacterial display (enrichment ratio); higher = better substrate or ligand; peptides without Tyr show the background).
FGFR3, sequence (P22607 whole entry, looked up): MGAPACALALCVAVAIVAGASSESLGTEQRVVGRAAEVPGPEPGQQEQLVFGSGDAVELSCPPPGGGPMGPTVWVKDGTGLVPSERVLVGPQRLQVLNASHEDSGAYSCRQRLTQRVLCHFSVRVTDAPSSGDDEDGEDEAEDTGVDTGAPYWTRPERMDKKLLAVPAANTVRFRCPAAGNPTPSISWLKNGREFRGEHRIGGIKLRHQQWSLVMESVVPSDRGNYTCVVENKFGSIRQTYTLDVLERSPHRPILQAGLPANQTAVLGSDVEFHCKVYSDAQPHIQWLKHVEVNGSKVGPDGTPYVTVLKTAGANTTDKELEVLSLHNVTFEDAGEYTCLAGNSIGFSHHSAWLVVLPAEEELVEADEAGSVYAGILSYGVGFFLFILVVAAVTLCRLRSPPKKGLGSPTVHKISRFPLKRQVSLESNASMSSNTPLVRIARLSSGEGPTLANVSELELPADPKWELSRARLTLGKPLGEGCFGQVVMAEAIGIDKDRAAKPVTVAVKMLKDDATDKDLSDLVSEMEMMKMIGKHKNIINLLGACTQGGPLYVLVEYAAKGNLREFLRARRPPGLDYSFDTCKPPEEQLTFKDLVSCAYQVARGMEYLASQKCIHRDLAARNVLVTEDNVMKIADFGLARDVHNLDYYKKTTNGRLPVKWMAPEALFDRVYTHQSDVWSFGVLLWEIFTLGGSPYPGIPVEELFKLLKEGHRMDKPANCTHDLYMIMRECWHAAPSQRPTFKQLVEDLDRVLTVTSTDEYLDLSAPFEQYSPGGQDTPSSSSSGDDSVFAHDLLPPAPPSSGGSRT
With EKLQKYFRQNP [EHHADH_Y682_YF] the phosphorylation enrichment was 0.472.
Sequence DLVHPYVHKIL [SF3B1_Y570_R568H] has a phosphorylation enrichment of 0.567.
Sequence ASKEPYYVRCI [MYO1D_Y585] has a phosphorylation enrichment of 0.813.
Sequence MGGSVYFSYPD [HIKESHI_Y55] has a phosphorylation enrichment of 1.41.
In the case of FSCLPCGRLAY [SLC52A2_Y305_Y305C], the phosphorylation enrichment is reported as 0.54.
AFLEDYFTSTK [SRC_Y522_E527K] showed a phosphorylation enrichment of 0.774.
With ERPIRYLNHQL [CEP152_Y268_Q265P] the phosphorylation enrichment was 0.424.
QKKEEYKMALY [F8_Y1990_R1985Q] showed a phosphorylation enrichment of 0.582.
For SGVSFYINLCQ [IGF2R_Y2025_N2020S_YF], the phosphorylation enrichment was 1.19.
Sequence NTDETYSIDNE [TUBB2B_Y200_C201S] has a phosphorylation enrichment of 0.715.
LKFAIYFEVRE [LAMA2_Y1258_A1261V_YF] showed a phosphorylation enrichment of 1.08.
Work on RPSRQYATLDV [SCAMP3_Y35] yielded a phosphorylation enrichment of 0.336.
In the case of TEAGDYKLCFD [TMED1_Y103], the phosphorylation enrichment is reported as 1.02.
In the case of GGPTFYIDTNA [ACTL6A_Y69_YF], the phosphorylation enrichment is reported as 0.868.
In the case of PRPAGYPSMVS [CACNA1C_Y1832_T1835M], the phosphorylation enrichment is reported as 0.364.
RGLQVYHKRNA [LRP2_Y2010_R2012K] gave a phosphorylation enrichment of 0.642.
Work on TLAHKYHGGGG [HBB_Y146_A141T] yielded a phosphorylation enrichment of 0.494.
NVGGKYSYLKV [GRM3_Y478] gave a phosphorylation enrichment of 0.476.
With PELINYHQHNS [BTK_Y361] the phosphorylation enrichment was 1.02.
For SPFMLYQFLKQ [RPAP3_Y567_D564Y_YF], the phosphorylation enrichment was 0.99.
In the case of RFWPRYVKVGS [NOG_Y172], the phosphorylation enrichment is reported as 0.751.
KAIMTYVPSFF [ACTN4_Y260_S262P_YF] showed a phosphorylation enrichment of 0.542.
For EASEQHLTKAS [NRCAM_Y739_Y739H], the phosphorylation enrichment was 0.551.
In the case of EACRSYSHVVL [CHST6_Y168], the phosphorylation enrichment is reported as 0.701.
SDFSSYARTSI [TERT_Y949_YF] showed a phosphorylation enrichment of 0.613.
RLYARYFQGDL [PDK3_Y337] was tested, and the phosphorylation enrichment was 0.923.
FLAVEYHKPHI [IDS_Y225_G224E] gave a phosphorylation enrichment of 0.515.
ETCLAYMEKRI [TEKT1_Y118_R119M] was tested, and the phosphorylation enrichment was 0.814.
For DFAIVYGTIIL [GPR179_Y460_G455D], the phosphorylation enrichment was 1.1.
AKGMKYVASKK [MET_Y1194_L1195V] showed a phosphorylation enrichment of 0.356.
LWPIWYRCRRP [MRGPRX1_Y130_H133R] showed a phosphorylation enrichment of 0.507.
Work on KKMKCYHVGKV [HARS2_Y151_R150C] yielded a phosphorylation enrichment of 0.552.
In the case of PADCRYYAFPQ [GAMT_Y222], the phosphorylation enrichment is reported as 8.15.

Each sequence was assayed on Fer (mouse) in the same assay as above.
EKLQKYFRQNP [EHHADH_Y682_YF] gave a phosphorylation enrichment of 0.365.
In the case of DLVHPYVHKIL [SF3B1_Y570_R568H], the phosphorylation enrichment is reported as 0.497.
ASKEPYYVRCI [MYO1D_Y585] showed a phosphorylation enrichment of 0.557.
For MGGSVYFSYPD [HIKESHI_Y55], the phosphorylation enrichment was 0.401.
With FSCLPCGRLAY [SLC52A2_Y305_Y305C] the phosphorylation enrichment was 0.351.
With AFLEDYFTSTK [SRC_Y522_E527K] the phosphorylation enrichment was 0.356.
Work on ERPIRYLNHQL [CEP152_Y268_Q265P] yielded a phosphorylation enrichment of 0.417.
For QKKEEYKMALY [F8_Y1990_R1985Q], the phosphorylation enrichment was 0.895.
SGVSFYINLCQ [IGF2R_Y2025_N2020S_YF] was tested, and the phosphorylation enrichment was 0.529.
In the case of NTDETYSIDNE [TUBB2B_Y200_C201S], the phosphorylation enrichment is reported as 0.63.
For LKFAIYFEVRE [LAMA2_Y1258_A1261V_YF], the phosphorylation enrichment was 0.932.
RPSRQYATLDV [SCAMP3_Y35] gave a phosphorylation enrichment of 0.313.
Sequence TEAGDYKLCFD [TMED1_Y103] has a phosphorylation enrichment of 0.619.
Sequence GGPTFYIDTNA [ACTL6A_Y69_YF] has a phosphorylation enrichment of 0.529.
PRPAGYPSMVS [CACNA1C_Y1832_T1835M] gave a phosphorylation enrichment of 0.412.
RGLQVYHKRNA [LRP2_Y2010_R2012K] gave a phosphorylation enrichment of 0.517.
In the case of TLAHKYHGGGG [HBB_Y146_A141T], the phosphorylation enrichment is reported as 0.436.
Sequence NVGGKYSYLKV [GRM3_Y478] has a phosphorylation enrichment of 0.446.
With PELINYHQHNS [BTK_Y361] the phosphorylation enrichment was 0.664.
In the case of SPFMLYQFLKQ [RPAP3_Y567_D564Y_YF], the phosphorylation enrichment is reported as 3.37.
RFWPRYVKVGS [NOG_Y172] was tested, and the phosphorylation enrichment was 0.726.
In the case of KAIMTYVPSFF [ACTN4_Y260_S262P_YF], the phosphorylation enrichment is reported as 0.438.
EASEQHLTKAS [NRCAM_Y739_Y739H] gave a phosphorylation enrichment of 0.497.
Work on EACRSYSHVVL [CHST6_Y168] yielded a phosphorylation enrichment of 0.824.
Sequence SDFSSYARTSI [TERT_Y949_YF] has a phosphorylation enrichment of 0.56.
For RLYARYFQGDL [PDK3_Y337], the phosphorylation enrichment was 0.543.
Work on FLAVEYHKPHI [IDS_Y225_G224E] yielded a phosphorylation enrichment of 0.354.
In the case of ETCLAYMEKRI [TEKT1_Y118_R119M], the phosphorylation enrichment is reported as 0.691.
Work on DFAIVYGTIIL [GPR179_Y460_G455D] yielded a phosphorylation enrichment of 0.727.
AKGMKYVASKK [MET_Y1194_L1195V] was tested, and the phosphorylation enrichment was 0.322.
LWPIWYRCRRP [MRGPRX1_Y130_H133R] showed a phosphorylation enrichment of 0.331.
With KKMKCYHVGKV [HARS2_Y151_R150C] the phosphorylation enrichment was 0.356.
With PADCRYYAFPQ [GAMT_Y222] the phosphorylation enrichment was 10.4.

These sequences were tested against Fes (UniProt P07332) in the same assay as above.
Fes, sequence (P07332 whole entry, looked up): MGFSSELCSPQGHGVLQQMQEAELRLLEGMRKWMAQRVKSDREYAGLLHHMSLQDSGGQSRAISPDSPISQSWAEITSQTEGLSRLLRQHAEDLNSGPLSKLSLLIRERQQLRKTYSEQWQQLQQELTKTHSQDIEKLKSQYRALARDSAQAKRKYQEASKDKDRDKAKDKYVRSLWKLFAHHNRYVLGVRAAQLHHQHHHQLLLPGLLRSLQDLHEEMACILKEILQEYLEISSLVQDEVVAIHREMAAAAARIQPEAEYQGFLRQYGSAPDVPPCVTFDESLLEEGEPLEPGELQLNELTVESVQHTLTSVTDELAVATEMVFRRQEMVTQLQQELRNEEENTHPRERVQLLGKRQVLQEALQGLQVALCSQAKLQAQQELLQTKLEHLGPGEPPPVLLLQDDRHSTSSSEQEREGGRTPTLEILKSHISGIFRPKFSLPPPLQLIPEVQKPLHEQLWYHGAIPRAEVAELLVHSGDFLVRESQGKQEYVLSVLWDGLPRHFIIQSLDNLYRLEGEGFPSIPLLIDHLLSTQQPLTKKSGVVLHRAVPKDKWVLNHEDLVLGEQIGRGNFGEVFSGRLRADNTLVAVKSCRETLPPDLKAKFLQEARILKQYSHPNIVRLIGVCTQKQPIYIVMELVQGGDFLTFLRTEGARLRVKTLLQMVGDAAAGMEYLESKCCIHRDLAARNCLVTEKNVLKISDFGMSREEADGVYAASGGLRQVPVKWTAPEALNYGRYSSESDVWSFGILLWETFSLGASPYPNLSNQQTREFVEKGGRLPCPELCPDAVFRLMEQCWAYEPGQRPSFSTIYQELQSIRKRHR
Sequence EKLQKYFRQNP [EHHADH_Y682_YF] has a phosphorylation enrichment of 0.742.
DLVHPYVHKIL [SF3B1_Y570_R568H] gave a phosphorylation enrichment of 0.841.
ASKEPYYVRCI [MYO1D_Y585] was tested, and the phosphorylation enrichment was 1.17.
MGGSVYFSYPD [HIKESHI_Y55] was tested, and the phosphorylation enrichment was 1.07.
FSCLPCGRLAY [SLC52A2_Y305_Y305C] gave a phosphorylation enrichment of 0.772.
For AFLEDYFTSTK [SRC_Y522_E527K], the phosphorylation enrichment was 0.97.
For ERPIRYLNHQL [CEP152_Y268_Q265P], the phosphorylation enrichment was 0.591.
QKKEEYKMALY [F8_Y1990_R1985Q] showed a phosphorylation enrichment of 1.41.
SGVSFYINLCQ [IGF2R_Y2025_N2020S_YF] gave a phosphorylation enrichment of 1.46.
NTDETYSIDNE [TUBB2B_Y200_C201S] gave a phosphorylation enrichment of 1.35.
Sequence LKFAIYFEVRE [LAMA2_Y1258_A1261V_YF] has a phosphorylation enrichment of 1.72.
Sequence RPSRQYATLDV [SCAMP3_Y35] has a phosphorylation enrichment of 0.461.
TEAGDYKLCFD [TMED1_Y103] was tested, and the phosphorylation enrichment was 1.35.
GGPTFYIDTNA [ACTL6A_Y69_YF] was tested, and the phosphorylation enrichment was 1.39.
Work on PRPAGYPSMVS [CACNA1C_Y1832_T1835M] yielded a phosphorylation enrichment of 0.668.
Sequence RGLQVYHKRNA [LRP2_Y2010_R2012K] has a phosphorylation enrichment of 0.985.
TLAHKYHGGGG [HBB_Y146_A141T] showed a phosphorylation enrichment of 0.973.
NVGGKYSYLKV [GRM3_Y478] gave a phosphorylation enrichment of 0.65.
Work on PELINYHQHNS [BTK_Y361] yielded a phosphorylation enrichment of 1.06.
SPFMLYQFLKQ [RPAP3_Y567_D564Y_YF] showed a phosphorylation enrichment of 1.34.
RFWPRYVKVGS [NOG_Y172] was tested, and the phosphorylation enrichment was 0.624.
Work on KAIMTYVPSFF [ACTN4_Y260_S262P_YF] yielded a phosphorylation enrichment of 0.838.
Work on EASEQHLTKAS [NRCAM_Y739_Y739H] yielded a phosphorylation enrichment of 0.859.
EACRSYSHVVL [CHST6_Y168] showed a phosphorylation enrichment of 0.711.
In the case of SDFSSYARTSI [TERT_Y949_YF], the phosphorylation enrichment is reported as 0.834.
With RLYARYFQGDL [PDK3_Y337] the phosphorylation enrichment was 1.26.
With FLAVEYHKPHI [IDS_Y225_G224E] the phosphorylation enrichment was 0.814.
With ETCLAYMEKRI [TEKT1_Y118_R119M] the phosphorylation enrichment was 1.13.
DFAIVYGTIIL [GPR179_Y460_G455D] was tested, and the phosphorylation enrichment was 1.51.
AKGMKYVASKK [MET_Y1194_L1195V] showed a phosphorylation enrichment of 0.548.
Work on LWPIWYRCRRP [MRGPRX1_Y130_H133R] yielded a phosphorylation enrichment of 0.512.
For KKMKCYHVGKV [HARS2_Y151_R150C], the phosphorylation enrichment was 0.723.
With PADCRYYAFPQ [GAMT_Y222] the phosphorylation enrichment was 1.7.

The sequences below were run against Fyn (UniProt P06241) in the same assay as above.
Fyn, sequence (P06241 whole entry, looked up): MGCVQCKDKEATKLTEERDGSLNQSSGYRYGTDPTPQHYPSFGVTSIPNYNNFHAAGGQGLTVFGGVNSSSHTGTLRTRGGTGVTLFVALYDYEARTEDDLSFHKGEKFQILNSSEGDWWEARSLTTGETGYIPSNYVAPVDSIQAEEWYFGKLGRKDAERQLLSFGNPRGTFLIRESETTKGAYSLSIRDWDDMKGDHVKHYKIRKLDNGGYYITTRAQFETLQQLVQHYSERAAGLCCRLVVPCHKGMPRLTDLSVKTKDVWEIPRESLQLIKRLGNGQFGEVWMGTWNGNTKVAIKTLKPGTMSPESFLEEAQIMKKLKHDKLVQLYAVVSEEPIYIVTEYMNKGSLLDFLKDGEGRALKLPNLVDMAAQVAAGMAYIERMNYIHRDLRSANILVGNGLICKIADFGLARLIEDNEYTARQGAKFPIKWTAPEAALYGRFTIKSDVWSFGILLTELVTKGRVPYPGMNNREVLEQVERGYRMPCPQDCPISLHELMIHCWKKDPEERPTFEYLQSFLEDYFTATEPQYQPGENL
In the case of EKLQKYFRQNP [EHHADH_Y682_YF], the phosphorylation enrichment is reported as 0.431.
DLVHPYVHKIL [SF3B1_Y570_R568H] showed a phosphorylation enrichment of 0.495.
Sequence ASKEPYYVRCI [MYO1D_Y585] has a phosphorylation enrichment of 0.521.
Sequence MGGSVYFSYPD [HIKESHI_Y55] has a phosphorylation enrichment of 3.16.
FSCLPCGRLAY [SLC52A2_Y305_Y305C] gave a phosphorylation enrichment of 0.425.
Work on AFLEDYFTSTK [SRC_Y522_E527K] yielded a phosphorylation enrichment of 0.474.
ERPIRYLNHQL [CEP152_Y268_Q265P] gave a phosphorylation enrichment of 0.457.
In the case of QKKEEYKMALY [F8_Y1990_R1985Q], the phosphorylation enrichment is reported as 0.603.
SGVSFYINLCQ [IGF2R_Y2025_N2020S_YF] was tested, and the phosphorylation enrichment was 0.361.
Sequence NTDETYSIDNE [TUBB2B_Y200_C201S] has a phosphorylation enrichment of 0.696.
In the case of LKFAIYFEVRE [LAMA2_Y1258_A1261V_YF], the phosphorylation enrichment is reported as 0.414.
RPSRQYATLDV [SCAMP3_Y35] gave a phosphorylation enrichment of 0.315.
TEAGDYKLCFD [TMED1_Y103] gave a phosphorylation enrichment of 0.598.
In the case of GGPTFYIDTNA [ACTL6A_Y69_YF], the phosphorylation enrichment is reported as 0.458.
PRPAGYPSMVS [CACNA1C_Y1832_T1835M] showed a phosphorylation enrichment of 0.48.
Work on RGLQVYHKRNA [LRP2_Y2010_R2012K] yielded a phosphorylation enrichment of 0.496.
TLAHKYHGGGG [HBB_Y146_A141T] was tested, and the phosphorylation enrichment was 0.497.
NVGGKYSYLKV [GRM3_Y478] was tested, and the phosphorylation enrichment was 0.358.
In the case of PELINYHQHNS [BTK_Y361], the phosphorylation enrichment is reported as 0.648.
For SPFMLYQFLKQ [RPAP3_Y567_D564Y_YF], the phosphorylation enrichment was 0.621.
Work on RFWPRYVKVGS [NOG_Y172] yielded a phosphorylation enrichment of 0.68.
In the case of KAIMTYVPSFF [ACTN4_Y260_S262P_YF], the phosphorylation enrichment is reported as 0.499.
Work on EASEQHLTKAS [NRCAM_Y739_Y739H] yielded a phosphorylation enrichment of 0.48.
For EACRSYSHVVL [CHST6_Y168], the phosphorylation enrichment was 0.611.
SDFSSYARTSI [TERT_Y949_YF] showed a phosphorylation enrichment of 0.488.
RLYARYFQGDL [PDK3_Y337] showed a phosphorylation enrichment of 0.6.
Sequence FLAVEYHKPHI [IDS_Y225_G224E] has a phosphorylation enrichment of 0.337.
Work on ETCLAYMEKRI [TEKT1_Y118_R119M] yielded a phosphorylation enrichment of 0.517.
Work on DFAIVYGTIIL [GPR179_Y460_G455D] yielded a phosphorylation enrichment of 0.692.
AKGMKYVASKK [MET_Y1194_L1195V] was tested, and the phosphorylation enrichment was 0.339.
Work on LWPIWYRCRRP [MRGPRX1_Y130_H133R] yielded a phosphorylation enrichment of 0.522.
KKMKCYHVGKV [HARS2_Y151_R150C] gave a phosphorylation enrichment of 0.317.
PADCRYYAFPQ [GAMT_Y222] was tested, and the phosphorylation enrichment was 2.3.
